Laboratory results: patent publication US20240166750A1 (published 2024)
Changes are numbered by the printed parent chain. Names and notes keep the numbering of the source. Each block holds one binder with its values, some of them ahead of it.

Key:
[1] = target: T1, Recombinant human FcγRIIIa-V158 (human, UniProt P08637 17-208); assay: SPR; -kif
[2] = target: T1, Recombinant human FcγRIIIa-V158; assay: SPR; +kif

T1 sequence (P08637 17-208 F176V): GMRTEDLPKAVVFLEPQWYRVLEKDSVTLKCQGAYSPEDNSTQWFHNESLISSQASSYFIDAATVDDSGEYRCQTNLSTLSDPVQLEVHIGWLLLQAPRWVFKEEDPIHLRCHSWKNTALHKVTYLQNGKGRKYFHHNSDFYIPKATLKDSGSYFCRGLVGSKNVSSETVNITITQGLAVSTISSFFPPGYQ

B3: human IgG1 antibody specific for protein 4, S239D + T256D/T307Q, +Kif (antibody)
chain: ASTKGPSVFPLAPSSKSTSGGTAALGCLVKDYFPEPVTVSWNSGALTSGVHTFPAVLQSSGLYSLSSVVTVPSSSLGTQTYICNVNHKPSNTKVDKKVEPKSCDKTHTCPPCPAPELLGGPDVFLFPPKPKDTLMISRDPEVTCVVVDVSHEDPEVKFNWYVDGVEVHNAKTKPREEQYNSTYRVVSVLQVLHQDWLNGKEYKCKVSNKALPAPIEKTISKAKGQPREPQVYTLPPSRDELTKNQVSLTCLVKGFYPSDIAVEWESNGQPENNYKTTPPVLDSDGSFFLYSKLTVDKSRWQQGNVFSCSVMHEALHNHYTQKSLSLSPGK
Kd [2]: 19.7 nM

B5: human IgG1 antibody specific for protein 4, S239D/I332E + T256D/T307Q + R292C/V302C, -Kif (antibody)
chain: B3 chain with R175C, V185C, I215E
Kd [1]: 15.1 nM

B6: human IgG1 antibody specific for protein 4, S239D/I332E + R292C/V302C, +Kif (antibody)
chain: B3 chain with D139T, R175C, V185C, Q190T, I215E
Kd [2]: 5.46 nM

B7: human IgG1 antibody specific for protein 4, S239D/I332E + T256D/T307Q + R292C/V302C, +Kif (antibody)
chain: B3 chain with R175C, V185C, I215E
Kd [2]: 5.24 nM

B9: human IgG1 antibody specific for protein 4, S239D/I332E + R292C/V302C, -Kif (antibody)
chain: B3 chain with D139T, R175C, V185C, Q190T, I215E
Kd [1]: 11.1 nM

B12: human IgG1 antibody specific for protein 4, S239D/I332E + T256D/T307Q, +Kif (antibody)
chain: B3 chain with I215E
Kd [2]: 7.59 nM

B13: human IgG1 antibody specific for protein 4, S239D + T256D/T307Q + R292C/V302C, +Kif (antibody)
chain: B3 chain with R175C, V185C
Kd [2]: 13.1 nM

B14: human IgG1 antibody specific for protein 4, S239D + R292C/V302C, -Kif (antibody)
chain: B3 chain with D139T, R175C, V185C, Q190T
Kd [1]: 68.6 nM

B16: human IgG1 antibody specific for protein 4, S239D + T256D/T307Q, -Kif (antibody)
chain: B3 chain
Kd [1]: 60.4 nM

B17: human IgG1 antibody specific for protein 4, S239D + R292C/V302C, +Kif (antibody)
chain: B3 chain with D139T, R175C, V185C, Q190T
Kd [2]: 8.97 nM

B19: human IgG1 antibody specific for protein 4, S239D + T256D/T307Q + R292C/V302C, -Kif (antibody)
chain: B3 chain with R175C, V185C
Kd [1]: 87.5 nM

Continued, values first:

Kd [1]: 41.8 nM
B1: human IgG1 antibody specific for protein 4, S239D/S298A + R292C/V302C, -Kif (antibody)
chain: B3 chain with D139T, R175C, S181A, V185C, Q190T

Kd [1]: 30.7 nM
B2: human IgG1 antibody specific for protein 4, S239D/S298A + T256D/T307Q, -Kif (antibody)
chain: B3 chain with S181A

Kd [2]: 12.8 nM
B4: human IgG1 antibody specific for protein 4, S239D/S298A + T256D/T307Q + R292C/V302C, +Kif (antibody)
chain: B3 chain with R175C, S181A, V185C

Kd [2]: 14 nM
B8: human IgG1 antibody specific for protein 4, S239D/S298A + T256D/T307Q, +Kif (antibody)
chain: B3 chain with S181A

Kd [1]: 410 nM
B10: human IgG1 antibody specific for protein 4, T256D/T307Q + R292C/V302C, -Kif (antibody)
chain: B3 chain with D122S, R175C, V185C

Kd [2]: 8.76 nM
B11: human IgG1 antibody specific for protein 4, S239D/S298A + R292C/V302C, +Kif (antibody)
chain: B3 chain with D139T, R175C, S181A, V185C, Q190T

Kd [2]: 153 nM
B15: human IgG1 antibody specific for protein 4, T256D/T307Q + R292C/V302C, +Kif (antibody)
chain: B3 chain with D122S, R175C, V185C

Kd [1]: 12.3 nM
B18: human IgG1 antibody specific for protein 4, S239D/I332E + T256D/T307Q, -Kif (antibody)
chain: B3 chain with I215E
